Here are results for 94 variants from the supplement of paper PMC10567573.

The chains are these.
B1: CDC14A (parent)
chain: LNLAMVYRYCCKLNKKLKSYSLSR
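Note: lentivirally expressed fusions sorted by FACS into six bins by GFP to DsRed ratio, PSI derived from sequencing read proportions per bin multiplied by bin number.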

Variants of B1 are the subject of the series. Description: protein stability index of a GFP-peptide fusion (GPS, HEK-293T) (PSI 1-6); higher = more stable. As to conditions: c terminus: a fixed tail appended.
LNLAMVYRYCCKLNKPLKSYSLSR [K16P]: the protein stability index was 2.42.

Regarding LNLAMVYRYCCKLNKDLKSYSLSR [K16D], the protein stability index is 2.56.

In the case of LNLAMVYRYCCKLNKTLKSYSLSR [K16T], the protein stability index was determined as 3.67.

On to LNLAMTYRYCCKLNKKLKSYSLSR [V6T], for which the protein stability index turned out to be 2.46.

With LNLAMPYRYCCKLNKKLKSYSLSR [V6P], the protein stability index was found to be 2.15.

For LNLAMHYRYCCKLNKKLKSYSLSR [V6H], the protein stability index was determined as 2.03.

On to LNLAMMYRYCCKLNKKLKSYSLSR [V6M], for which the protein stability index came to 2.72.

Take LNLAMQYRYCCKLNKKLKSYSLSR [V6Q]: the protein stability index came out at 2.85.

As to LNLAMCYRYCCKLNKKLKSYSLSR [V6C], the protein stability index stood at 3.05.

Consider LNLAMRYRYCCKLNKKLKSYSLSR [V6R], for which the protein stability index worked out at 2.78.

For the variant LNLAMWYRYCCKLNKKLKSYSLSR [V6W], the protein stability index came to 3.43.

LNLAMVYRYTCKLNKKLKSYSLSR [C10T]: the protein stability index turned out to be 2.32.

With LNLAMVYRYPCKLNKKLKSYSLSR [C10P], the protein stability index was 2.05.

Turning to LNLAMVYRYECKLNKKLKSYSLSR [C10E], the protein stability index amounted to 1.98.

LNLAMVYRYCCKWNKKLKSYSLSR [L13W]: the protein stability index came out at 1.96.

Turning to LNLAMVYRYCCKFNKKLKSYSLSR [L13F], the protein stability index was found to be 3.31.

For LNLAMVYRYCCKDNKKLKSYSLSR [L13D], the protein stability index amounted to 2.11.

LNLAMVYRYCCKMNKKLKSYSLSR [L13M]: the protein stability index was found to be 3.6.

Take LNLAMVYRYCCKHNKKLKSYSLSR [L13H]: the protein stability index stood at 2.

On to LNLAMVYRYCCKLNKKLKSSSLSR [Y20S], for which the protein stability index stood at 2.63.

Regarding LNLAMVYRYCCKLNKKLKSRSLSR [Y20R], the protein stability index came out at 2.17.

In the case of LNLAMVYRYCCKLNKKLKSCSLSR [Y20C], the protein stability index came to 3.44.

Take LNLAMVYRYCCKLNKKLKSKSLSR [Y20K]: the protein stability index stood at 3.24.

For the variant LNLAMVYRYCCKLNKKLKSASLSR [Y20A], the protein stability index worked out at 2.61.

Turning to LNLAMVYRYCCKLNKKLKSYSLSM [R24M], the protein stability index stood at 2.37.

For the variant LNLAMVYRYCCKLNKKLKSYSLSS [R24S], the protein stability index came to 2.19.

Regarding LNLAMVYRYCCKLNKKLKSYSLSA [R24A], the protein stability index turned out to be 3.55.

On to LNLAMVYRYCCKLNKKLKSYSLSP [R24P], for which the protein stability index came to 2.59.

With LNLAMVYRYCCKLNKKLKSYSLSG [R24G], the protein stability index was 2.21.

Turning to LNLAMVYRYCHKLNKKLKSYSLSR [C11H], the protein stability index worked out at 3.15.

On to LNLAMVYRYCNKLNKKLKSYSLSR [C11N], for which the protein stability index was 3.24.

Turning to LNLAMVYRWCCKLNKKLKSYSLSR [Y9W], the protein stability index stood at 2.91.

LNLAMVYRNCCKLNKKLKSYSLSR [Y9N]: the protein stability index is 2.03.

In the case of LNLAMVYRYCCKLNKKLKSYSLIR [S23I], the protein stability index came to 3.46.

For the variant LNLAMVYRYCCKLNKKLKSYSLWR [S23W], the protein stability index came out at 3.77.

With LNLAMVYRYCCKLNKKLKSYSLQR [S23Q], the protein stability index came to 2.53.

LNLAMVYRYCCKLNKKLKSYSLKR [S23K]: the protein stability index turned out to be 3.42.

For the variant LNLAMVYRYCCKLHKKLKSYSLSR [N14H], the protein stability index is 3.21.

As to LNLAMVYRYCCKLYKKLKSYSLSR [N14Y], the protein stability index turned out to be 3.35.

For the variant LNLAMVYRYCCKLEKKLKSYSLSR [N14E], the protein stability index was 4.6.

In the case of LNLAMVYRYCCKLPKKLKSYSLSR [N14P], the protein stability index was determined as 4.59.

Consider LNLAMVYRYCCKLVKKLKSYSLSR [N14V], for which the protein stability index turned out to be 1.78.

As for LNLAPVYRYCCKLNKKLKSYSLSR [M5P], the protein stability index came out at 3.2.

Regarding LNLADVYRYCCKLNKKLKSYSLSR [M5D], the protein stability index was determined as 3.92.

On to LNLANVYRYCCKLNKKLKSYSLSR [M5N], for which the protein stability index was 3.77.

Regarding LNLAGVYRYCCKLNKKLKSYSLSR [M5G], the protein stability index turned out to be 3.92.

Turning to LNLAVVYRYCCKLNKKLKSYSLSR [M5V], the protein stability index turned out to be 2.54.

With LNLAMVYRYCCKLNKKLCSYSLSR [K18C], the protein stability index was found to be 1.73.

Take LNLAMVYRYCCKLNKKLDSYSLSR [K18D]: the protein stability index is 2.42.

Turning to LNLAMVYRYCCKLNKKLLSYSLSR [K18L], the protein stability index turned out to be 1.71.

As for LNLAMVYRYCCKLNKKLMSYSLSR [K18M], the protein stability index came to 3.72.

Consider LNLAMVYRYCCKLNKKLSSYSLSR [K18S], for which the protein stability index is 2.9.

As to LNLAMVYRYCCKLNKKAKSYSLSR [L17A], the protein stability index is 2.65.

In the case of LNLAMVYRYCCKLNKKHKSYSLSR [L17H], the protein stability index was 2.21.

With LNTAMVYRYCCKLNKKLKSYSLSR [L3T], the protein stability index worked out at 2.79.

Take LNVAMVYRYCCKLNKKLKSYSLSR [L3V]: the protein stability index is 2.59.

Regarding LNMAMVYRYCCKLNKKLKSYSLSR [L3M], the protein stability index is 2.88.

As to LNEAMVYRYCCKLNKKLKSYSLSR [L3E], the protein stability index came out at 2.32.

For LNIAMVYRYCCKLNKKLKSYSLSR [L3I], the protein stability index amounted to 2.02.

Turning to LNDAMVYRYCCKLNKKLKSYSLSR [L3D], the protein stability index stood at 2.29.

Regarding LNQAMVYRYCCKLNKKLKSYSLSR [L3Q], the protein stability index amounted to 2.61.

In the case of LNLAMVLRYCCKLNKKLKSYSLSR [Y7L], the protein stability index was determined as 3.34.

As for LNLAMVSRYCCKLNKKLKSYSLSR [Y7S], the protein stability index was 3.42.

Take LNLAMVYIYCCKLNKKLKSYSLSR [R8I]: the protein stability index was determined as 2.62.

With LNLDMVYRYCCKLNKKLKSYSLSR [A4D], the protein stability index was 4.12.

Turning to LNLSMVYRYCCKLNKKLKSYSLSR [A4S], the protein stability index was determined as 3.5.

On to LNLFMVYRYCCKLNKKLKSYSLSR [A4F], for which the protein stability index amounted to 3.74.

Take LNLKMVYRYCCKLNKKLKSYSLSR [A4K]: the protein stability index turned out to be 1.59.

Regarding LNLEMVYRYCCKLNKKLKSYSLSR [A4E], the protein stability index is 2.43.

As for LNLAMVYRYCCKLNKKLKSYSNSR [L22N], the protein stability index worked out at 1.75.

Regarding LNLAMVYRYCCKLNKKLKSYSRSR [L22R], the protein stability index was determined as 2.31.

For the variant LNLAMVYRYCCKLNKKLKSYSVSR [L22V], the protein stability index came out at 1.04.

With LNLAMVYRYCCKLNKKLKDYSLSR [S19D], the protein stability index is 2.28.

With LNLAMVYRYCCKLNKKLKCYSLSR [S19C], the protein stability index stood at 2.98.

Regarding LNLAMVYRYCCKLNKKLKNYSLSR [S19N], the protein stability index was determined as 2.8.

Regarding LNLAMVYRYCCKLNKKLKKYSLSR [S19K], the protein stability index turned out to be 2.19.

With LNLAMVYRYCCKLNKKLKPYSLSR [S19P], the protein stability index was determined as 2.75.

Turning to LNLAMVYRYCCMLNKKLKSYSLSR [K12M], the protein stability index stood at 2.19.

In the case of LNLAMVYRYCCELNKKLKSYSLSR [K12E], the protein stability index stood at 1.5.

For the variant LNLAMVYRYCCSLNKKLKSYSLSR [K12S], the protein stability index is 2.58.

As for LNLAMVYRYCCPLNKKLKSYSLSR [K12P], the protein stability index is 2.87.

LNLAMVYRYCCKLNKKLKSYHLSR [S21H]: the protein stability index was found to be 2.13.

In the case of LNLAMVYRYCCKLNKKLKSYLLSR [S21L], the protein stability index was determined as 2.25.

Take LNLAMVYRYCCKLNKKLKSYQLSR [S21Q]: the protein stability index came to 2.86.

With LNLAMVYRYCCKLNKKLKSYVLSR [S21V], the protein stability index was determined as 4.29.

As to LNLAMVYRYCCKLNKKLKSYTLSR [S21T], the protein stability index was found to be 2.92.

In the case of LNLAMVYRYCCKLNKKLKSYNLSR [S21N], the protein stability index is 2.51.

With LALAMVYRYCCKLNKKLKSYSLSR [N2A], the protein stability index is 3.34.

For the variant LWLAMVYRYCCKLNKKLKSYSLSR [N2W], the protein stability index stood at 3.17.

Take LVLAMVYRYCCKLNKKLKSYSLSR [N2V]: the protein stability index came to 1.82.

With LPLAMVYRYCCKLNKKLKSYSLSR [N2P], the protein stability index was determined as 3.42.

Regarding LYLAMVYRYCCKLNKKLKSYSLSR [N2Y], the protein stability index is 2.64.

For the variant LNLAMVYRYCCKLNYKLKSYSLSR [K15Y], the protein stability index was determined as 3.3.

Take LNLAMVYRYCCKLNFKLKSYSLSR [K15F]: the protein stability index worked out at 2.81.
